Results published in PMC1904285.

What was measured:
[1] = molecular target: T1, His6-CspB (major cold shock protein) (Bacillus subtilis, UniProt P32081 1-67); assay: ITC
[2] = molecular target: T1, His6-CspB (major cold shock protein); assay: competition EMSA
[3] = molecular target: His6-CspB (major cold shock protein);SsoSSB (Bacillus subtilis;Sulfolobus …, UniProt P32081;Q97W73 1-67;1-148, |); assay: EMSA
[4] = molecular target: T1, His6-CspB (major cold shock protein); assay: EMSA
CspB (untagged) = CspB (untagged) (Bacillus subtilis, UniProt P32081 1-67); assay: EMSA
Chain of CspB (untagged) (P32081 whole entry): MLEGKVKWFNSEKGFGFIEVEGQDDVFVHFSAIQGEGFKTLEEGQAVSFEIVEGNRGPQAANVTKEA

SsoSSB-Cy5 = molecular target: T2, SsoSSB-Cy5 (Sulfolobus solfataricus, UniProt Q97W73 1-148); assay: EMSA
T2 sequence: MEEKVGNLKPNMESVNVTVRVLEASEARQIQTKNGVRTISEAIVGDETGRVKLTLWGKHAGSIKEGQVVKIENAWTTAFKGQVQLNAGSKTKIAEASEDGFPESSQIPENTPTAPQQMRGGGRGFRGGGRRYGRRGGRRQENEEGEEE

SsoSSB = molecular target: T3, SsoSSB (Sulfolobus solfataricus, UniProt Q97W73 1-148); assay: EMSA
T3 sequence: T2 sequence

T1 sequence (P32081 whole entry): as the sequence (P32081 whole entry) above
Chain of His6-CspB (major cold shock protein);SsoSSB (P32081 whole entry, one chain of several): as the sequence (P32081 whole entry) above

GTCTTTG (ssDNA) [ITC1 (consensus variant GTCTTTG)]
binding result [1]: binds

AAAAAAAAAAGCACTTAAAAAAAAA (ssDNA) [ON-Mt]
binding result [2]: binds | binding result [3]: binds

GTCTTTT (ssDNA) [ITC2 (consensus variant GTCTTTT)]
binding result [1]: binds

ATCCTACTGATTGGCCAAGGTGCTG (ssDNA) [ONc]
binding result [4]: binds | binding result (CspB (untagged)): binds | binding result (SsoSSB-Cy5): binds | binding result (SsoSSB): binds
